Reference: PMC11480844 (2024)

B1: H2-Kb / F4 (parent complex)
chain 1: QQQVRQSPQSLTVWEGETAILNCSYEDSTFNYFPWYQQFPGEGPALLISIRSVSDKKEDGRFTIFFNKREKKLSLHITDSQPGDSATYFCAAMSNYNVLYFGSGTKLTVEP
chain 2: ETAVFQTPNYHVTQVGNEVSFNCKQTLGHDTMYWYKQDSKKLLKIMFSYNNKQLIVNETVPRRFSPQSSDKAHLNLRIKSVEPEDSAVYLCASSARQNSPLYFAAGTRLTVT
chain 3: not shown
chain 4: IQKTPQIQVYSRHPPENGKPNILNCYVTQFHPPHIEIQMLKNGKKIPKVEMSDMSFSKDWSFYILAHTEFTPTETDTYACRVKHDSMAEPKTVYWDRDM
chain 5: SIINFEKL
B2: H2-Kb / Ed28 (parent complex)
chain 1: AQSVTQPDARVTVSEGASLQLRCKYSYFGTPYLFWYVQYPRQGLQLLLKYYPGDPVVQGVNGFEAEFSKSNSSFHLRKASVHWSDWAVYFCAVSPGSGGKLTLGAGTRLQVNL
chain 2: DSGVVQSPRHIIKEKGGRSVLTCIPISGHSNVVWYQQTLGKELKFLIQHYEKVERDKGFLPSRFSVQQFDDYHSEMNMSALELEDSAMYFCASSPRASDYTFGSGTRLLVI
chain 3: not shown
chain 4: B1 chain 4
chain 5: SIINFEKL

Variants of: B1
Assay: % of reporter cells activated (NFAT-GFP), raw
Note: test concentration or dose not given here.

Row | Variant | ratio to parent
1 | chain 5 I2S | 1.05
2 | chain 5 I2L | 1.25
3 | chain 5 I2E | 0.807
4 | chain 5 F5A | 0.967
5 | chain 5 F5V | 1.38
6 | chain 5 F5N | 0.225
7 | chain 5 F5W | 0.083
8 | chain 5 I3Q | 0.0638
9 | chain 5 I3T | 0.204
10 | chain 5 I3W | 0.358
11 | chain 5 L8N | 0.47
12 | chain 5 L8P | 0.48
13 | chain 5 L8M | 0.723
14 | chain 5 L8Q | 0.759
15 | chain 5 L8A | 0.395
16 | chain 5 L8Y | 0.898

Row | Variant | ratio to parent
17 | chain 5 L8R | 0.276
18 | chain 5 S1W | 0.0183
19 | chain 5 S1C | 0.0254
20 | chain 5 S1N | 0.0308
21 | chain 5 S1T | 0.0232
22 | chain 5 S1P | 0.0438
23 | chain 5 N4H | 0.0344
24 | chain 5 K7D | 0.101
25 | chain 5 K7R | 1.23
26 | chain 5 K7G | 0.234
27 | chain 5 E6S | 0.0357
28 | chain 5 E6K | 0.118
29 | chain 5 E6N | 0.0563
30 | chain 5 E6D | 0.987
31 | chain 5 E6Q | 0.0246

Further lines, results first:

Row | ratio to parent | Variant
32 | 1.45 | chain 5 I2G
33 | 0.181 | chain 5 I2Q
34 | 0.0728 | chain 5 I2K
35 | 0.517 | chain 5 F5Q
36 | 0.767 | chain 5 F5S
37 | 0.109 | chain 5 F5K
38 | 0.0625 | chain 5 I3G
39 | 0.0634 | chain 5 I3R
40 | 0.0344 | chain 5 I3D
41 | 1 | chain 5 I3F
42 | 0.517 | chain 5 I3Y
43 | 0.457 | chain 5 L8V
44 | 0.491 | chain 5 L8W
45 | 0.515 | chain 5 L8S
46 | 0.0638 | chain 5 S1K
47 | 0.0509 | chain 5 S1H

Row | ratio to parent | Variant
48 | 0.0402 | chain 5 N4T
49 | 0.0317 | chain 5 N4S
50 | 0.0339 | chain 5 N4F
51 | 0.0286 | chain 5 N4K
52 | 0.0277 | chain 5 N4D
53 | 0.628 | chain 5 K7T
54 | 0.85 | chain 5 K7L
55 | 0.771 | chain 5 K7I
56 | 0.222 | chain 5 K7A
57 | 0.726 | chain 5 K7F
58 | 0.261 | chain 5 K7S
59 | 0.651 | chain 5 K7M
60 | 0.00942 | chain 5 E6I
61 | 0.0121 | chain 5 E6L
62 | 0.537 | chain 5 E6C
63 | 0.0219 | chain 5 E6T

Variants of: B2
Assay: % of reporter cells activated (NFAT-GFP), raw

Row | Variant | ratio to parent
64 | chain 5 L8N | 0.594
65 | chain 5 I2T | 1.34
66 | chain 5 N4G | 0.00642
67 | chain 5 F5S | 0.867
68 | chain 5 F5Q | 0.455
69 | chain 5 F5I | 0.388

Results, then the variant that gave them:

Row | ratio to parent | Variant
70 | 0.902 | chain 5 L8Y
71 | 0.0743 | chain 5 E6M
72 | 0.013 | chain 5 K7E
73 | 0.00775 | chain 5 N4W
74 | 0.0271 | chain 5 N4S
75 | 0.908 | chain 5 S1M
